In patent US20230330251A1, “METHODS FOR TREATING CANCERS WITH ANTIBODY DRUG CONJUGATES (ADC) THAT BIND TO 191P4D12 PROTEINS” (AGENSYS, INC., priority 2020, published 2023):

How the values were obtained:
Format in all cases: in vivo, human
[1] = system: subjects with previously treated locally advanced or metastatic urothelial cancer; test: EV-301 phase 3 study: overall survival (OS), enfortumab vedotin vs chemotherapy
Source text: Subjects will be stratified according to the following: Eastern Cooperative Oncology Group Performance Status (ECOG PS), regions of the world and liver metastasis.
OS is the primary endpoint. OS is defined as the time from randomization to the date of death. Secondary endpoints include PFS1, ORR, DOR, DCR, safety and QOL/PRO.
Subjects in Arm A will receive EV on Days 1, 8 and 15 of each 28-day cycle. […] Within the control arm, the overall proportion of subjects receiving vinflunine will be capped at approximately 35%. Subjects will continue to receive study treatment until radiological disease progression as determined per investigator assessment or other discontinuation criteria are met or upon study termination, or study completion, whichever occurs first. No on-study crossover will be allowed. This study will consist of 3 phases: screening, treatment and follow-up.
The Full Analysis Set (FAS) will be used for the efficacy analysis on OS and PFS1. All subjects who are randomized will be included in the FAS. For time to event endpoints including OS and PFS1 log-rank test stratified by randomization stratification factors including liver metastasis, baseline ECOG PS and regions of the world at baseline will be used to compare the 2 treatment arms. The hazard ratio and corresponding 95% confidence interval from the stratified Cox proportional hazards regression model will also be presented. The median OS, PFS1 and DOR will be estimated using the Kaplan-Meier method and will be reported along with the corresponding 95% confidence interval by treatment arm.
Efficacy analysis for OS and PFS was conducted on the FAS. The interpretation of results from statistical tests was based on the FAS. Efficacy analysis for response related endpoints, e.g., ORR and DCR was conducted on RES.
OS was formally tested at both interim analysis and final analysis. At either interim or final analysis, the formal hypothesis tests on the selected secondary endpoints including PFS1, ORR and DCR, were performed hierarchically (per the order of PFS1->ORR->DCR) only when the OS analysis is rejected. The details about the significance levels at interim analysis and final analysis for each efficacy endpoints (OS, PFS1, ORR and DCR) is specified in SAP.
The primary efficacy endpoint of OS was analyzed using the log-rank test stratified by ECOG PS (0 vs 1), regions of the world (Western EU, US or the rest of world) and liver metastasis (yes or no). Randomized treatment and the strata used for randomization was used for the analysis. In addition, the stratified Cox proportional hazard model was used to estimate the hazard ratio and the corresponding 95% confidence interval. The median OS was estimated using the Kaplan-Meier method and will be reported along with the corresponding 95% confidence interval by treatment arm.
The primary analysis was performed using the FAS.
Additional analyses such as unstratified log-rank test and OS analyses adjusting the crossover effect may be conducted, if appropriate. Details are specified in the SAP.

[2] = system: subjects with previously treated locally advanced or metastatic urothelial cancer; test: EV-301: progression free survival (PFS1) per RECIST V1.1, investigator assessment
Source text: For each subject, PFS1 is defined as the time from the date of randomization until the date of radiological disease progression (per RECIST V1.1), or until death due to any cause. If a subject has neither progressed nor died, the subject was censored at the date of last radiological assessment. Subjects who receive any further anticancer therapy for the disease before radiological progression were censored at the date of the last radiological assessment before the anticancer therapy started.
The efficacy endpoint of PFS1 was analyzed using the log-rank test stratified by ECOG PS (0 vs 1), regions of the world (Western EU, US or the rest of world) and liver metastasis (yes or no). Randomized treatment and the strata used for randomization was used for the analysis. In addition, stratified Cox proportional hazard model was used to estimate the hazard ratio and the corresponding 95% confidence interval. The median PFS1 was estimated using the Kaplan-Meier method and reported along with the corresponding 95% confidence interval by treatment arm.
The primary analysis was performed using the FAS. Additional sensitivity analyses for PFS1 was also be performed. Details are specified in the SAP.

[3] = system: patients with previously treated locally advanced or metastatic urothelial carcinoma (la/mUC) with poor prognostic factors; test: EV-301 hard-to-treat subgroups: safety and tolerability
Experimental: Subgroup analyses were prespecified for the primary endpoint of OS and secondary endpoints of investigator-assessed progression-free survival (PFS) and overall response rate (ORR) per RECIST v1.1. Kaplan-Meier analyses compared OS and PFS between treatments for selected hard-to-treat subgroups as follows: age ≥65 years, presence of liver metastasis, primary upper tract disease, and checkpoint inhibitor (CPI) nonresponse. ORR and safety were also evaluated within subgroups. The Cox proportional hazards model was used to estimate hazard ratios. The Cochran-Mantel-Haenszel test was used to compare response and disease control rates between groups.

[4] = system: metastatic urothelial cancer patients; test: Phase 1 study of EV: clinical activity by dose; details: 1.25 mg/kg dose vs lower doses
Experimental: EV will be administered at a dose of 1.25 mg/kg as an intravenous infusion over approximately 30 minutes on Days 1, 8, and 15 of each 28-day cycle. […] A maximum tolerated dose (MTD) was not reached in this study. At the 1 mg/kg dose level, 2 dose- limiting toxicities (DLTs) were observed: Grade 3 proctalgia (later changed to grade 2 by the investigator) thought related to radiation recall and Grade 4 hyperuricemia without clinical sequelae.

[5] = Aged ≥65 Years, N = 190 EV, 188 SC
[6] = Nonresponsive to Prior PD-1/L1 Inhibitor, N = 202 EV, 202 SC
[7] = Presence of Liver Metastasis, N = 90 EV, 92 SC
[8] = Primary Upper Tract Disease, N = 96 EV, 102 SC

Question: With enfortumab vedotin as the substance, how does the “HR (95% CI), OS sensitivity analysis” value ([1]; Adjusting in chemotherapy arm based on the rank preserving structural failure time method) read?
Answer: 0.705 (0.516-0.853)

Question: What about the “Median OS” value ([1]; All) of the same substance?
Answer: 12.88 mo

Question: And the “OS, EV vs SC HR” value ([1]; All)?
Answer: 0.702

Question: And the “Overall survival (OS) Events, %” value ([1]; All)?
Answer: (44.5) %

Question: What about the “Overall survival (OS) Events, n/N” value ([1]; All) of the same substance?
Answer: 134/301

Question: What about the “Median OS” value ([1]; FAS, Kaplan-Meier) of the same substance?
Answer: 12.88 Months

Question: What about the “Deaths, %” value ([1]; FAS, interim analysis) of the same substance?
Answer: (44.5%)

Question: What about the “# of Deaths” value ([1]; Full Analysis Set, data cutoff 15 Jul. 2020) of the same substance?
Answer: 134

Question: What about the “HR (95% CI), OS sensitivity analysis” value ([1]; Inverse probability of censoring weights method) of the same substance?
Answer: 0.630 (0.435-0.912)

Question: And the “reduction in risk of death” value ([1]; PADCEV vs chemotherapy)?
Answer: 30%

Question: And the “HR (95% CI), OS sensitivity analysis” value ([1]; Unstratified analysis)?
Answer: 0.719 (0.572-0.903)

Question: What about the “estimated percentage of patients alive at 12 months” value ([1]; in vivo) of the same substance?
Answer: 51.5%

Question: And the “overall survival (OS) compared with standard chemotherapy” value ([1]; in vivo)?
Answer: superior

Question: What about the “primary endpoint of overall survival compared to chemotherapy” value ([1]; in vivo) of the same substance?
Answer: met its primary endpoint of overall survival

Question: And the “risk of death lower with enfortumab vedotin than with chemotherapy” value ([1]; median follow-up 11.1 months)?
Answer: 30%

Question: What about the “Median PFS” value ([2]; All) of the same substance?
Answer: 5.55 mo

Question: And the “PFS, EV vs SC HR” value ([2]; All)?
Answer: 0.615

Question: And the “Progression-free survival (PFS) Events, %” value ([2]; All)?
Answer: (66.8) %

Question: What about the “Progression-free survival (PFS) Events, n/N” value ([2]; All) of the same substance?
Answer: 201/301

Question: And the “Median PFS” value ([2]; FAS, investigator assessment)?
Answer: 5.55 Months

Question: And the “PFS Events, %” value ([2]; FAS, investigator assessment)?
Answer: (66.8%)

Question: What about the “reduction in risk of disease progression or death” value ([2]; PADCEV vs chemotherapy) of the same substance?
Answer: 39%

Question: What about the “Grade ≥3 TRAE: Anemia, %” value [3, 5] of the same substance?
Answer: 2.6%

Question: What about the “Grade ≥3 TRAE: Decreased neutrophil count, %” value [3, 5] of the same substance?
Answer: 7.4%

Question: What about the “Grade ≥3 TRAE: Decreased white blood cell count, %” value [3, 5] of the same substance?
Answer: 2.1%

Question: And the “Grade ≥3 TRAE: Fatigue, %” value [3, 5]?
Answer: 7.9%

Question: And the “Grade ≥3 TRAE: Febrile neutropenia, %” value [3, 5]?
Answer: 1.1%

Question: And the “Grade ≥3 TRAE: Maculopapular rash, %” value [3, 5]?
Answer: 7.4%

Question: And the “Grade ≥3 TRAE: Neutropenia, %” value [3, 5]?
Answer: 3.7%

Question: And the “Grade ≥3 TRAE: Anemia, %” value [3, 6]?
Answer: 3.0%

Question: And the “Grade ≥3 TRAE: Decreased neutrophil count, %” value [3, 6]?
Answer: 5.0%

Question: What about the “Grade ≥3 TRAE: Decreased white blood cell count, %” value [3, 6] of the same substance?
Answer: 1.0%

Question: And the “Grade ≥3 TRAE: Fatigue, %” value [3, 6]?
Answer: 5.0%

Question: And the “Grade ≥3 TRAE: Febrile neutropenia, %” value [3, 6]?
Answer: 1.0%

Question: What about the “Grade ≥3 TRAE: Maculopapular rash, %” value [3, 6] of the same substance?
Answer: 9.4%

Question: And the “Grade ≥3 TRAE: Neutropenia, %” value [3, 6]?
Answer: 4.5%

Question: What about the “Grade ≥3 TRAE: Anemia, %” value [3, 7] of the same substance?
Answer: 3.3%

Question: And the “Grade ≥3 TRAE: Decreased neutrophil count, %” value [3, 7]?
Answer: 5.6%

Question: And the “Grade ≥3 TRAE: Fatigue, %” value [3, 7]?
Answer: 5.6%

Question: And the “Grade ≥3 TRAE: Febrile neutropenia, %” value [3, 7]?
Answer: 2.2%

Question: What about the “Grade ≥3 TRAE: Maculopapular rash, %” value [3, 7] of the same substance?
Answer: 8.9%

Question: And the “Grade ≥3 TRAE: Neutropenia, %” value [3, 7]?
Answer: 5.6%

Question: What about the “Grade ≥3 TRAE: Anemia, %” value [3, 8] of the same substance?
Answer: 6.3%

Question: And the “Grade ≥3 TRAE: Decreased neutrophil count, %” value [3, 8]?
Answer: 9.4%

Question: What about the “Grade ≥3 TRAE: Decreased white blood cell count, %” value [3, 8] of the same substance?
Answer: 1.0%

Question: And the “Grade ≥3 TRAE: Fatigue, %” value [3, 8]?
Answer: 9.4%

Question: And the “Grade ≥3 TRAE: Febrile neutropenia, %” value [3, 8]?
Answer: 2.1%

Question: What about the “Grade ≥3 TRAE: Maculopapular rash, %” value [3, 8] of the same substance?
Answer: 10.4%

Question: And the “Grade ≥3 TRAE: Neutropenia, %” value [3, 8]?
Answer: 6.3%

Question: And the “grade ≥3 treatment-related AEs adjusted for treatment exposure, EV versus SC” value ([3]; across all four hard-to-treat subgroups)?
Answer: less frequently

Question: What about the “overall rate of AE's” value ([3]; patients non-responsive to prior treatment with PD-1/L1 inhibitors) of the same substance?
Answer: 97.5%

Question: And the “overall rate of AE's” value ([3]; patients with liver metastasis)?
Answer: 97.8%

Question: What about the “overall rate of AE's” value ([3]; patients with primary upper tract disease) of the same substance?
Answer: 99.0%

Question: What about the “overall rate of AE's” value ([3]; patients ≥65 years of age) of the same substance?
Answer: 97.4%

Question: And the “clinical activity by dose” value [4]?
Answer: highest activity
